One test deals with T1, EMR2 (Homo sapiens, UniProt Q9UHX3).
T1 construct: endogenous in cells; host or cells: human peripheral blood monocytes (from Leukopac PBMC) cultured with TGFb2 and tetanus toxoid, giving tolerogenic APC
T1 sequence (Q9UHX3 24-823): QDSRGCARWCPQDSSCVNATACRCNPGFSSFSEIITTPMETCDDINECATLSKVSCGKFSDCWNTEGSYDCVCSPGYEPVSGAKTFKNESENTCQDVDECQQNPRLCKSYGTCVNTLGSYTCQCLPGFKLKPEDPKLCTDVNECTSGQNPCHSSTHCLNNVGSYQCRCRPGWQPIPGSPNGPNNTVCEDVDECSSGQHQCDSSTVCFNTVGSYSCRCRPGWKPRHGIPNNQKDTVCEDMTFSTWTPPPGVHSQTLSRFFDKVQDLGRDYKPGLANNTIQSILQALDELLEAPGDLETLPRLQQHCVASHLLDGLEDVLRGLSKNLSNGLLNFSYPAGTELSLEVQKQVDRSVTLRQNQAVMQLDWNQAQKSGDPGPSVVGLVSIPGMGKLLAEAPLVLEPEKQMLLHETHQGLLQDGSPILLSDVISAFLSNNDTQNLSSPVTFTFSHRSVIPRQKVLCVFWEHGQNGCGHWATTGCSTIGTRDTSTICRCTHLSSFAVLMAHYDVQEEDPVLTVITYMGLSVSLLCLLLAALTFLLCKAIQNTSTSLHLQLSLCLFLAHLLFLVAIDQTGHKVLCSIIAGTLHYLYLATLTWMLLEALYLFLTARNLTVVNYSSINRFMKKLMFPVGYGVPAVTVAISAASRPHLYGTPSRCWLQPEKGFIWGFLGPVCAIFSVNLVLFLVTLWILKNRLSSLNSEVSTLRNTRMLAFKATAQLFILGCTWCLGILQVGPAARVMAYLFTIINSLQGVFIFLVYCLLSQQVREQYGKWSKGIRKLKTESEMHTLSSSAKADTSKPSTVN
The test is described as follows: Blocking EMR2 ligand binding with soluble chondroitin sulfate in tolerogenic APC / lymphocyte co-culture. The test is classed as cell-based. On the procedure: Monocytes were cultured as outlined above. Soluble chondroitin sulfate from shark cartilage (Sigma-Aldrich, St. Louis, Mo.) was used to bind to EMR and block signaling at a concentration of 1.5 mg/mL. CD25 and FoxP3 expression as well as intracellular cytokine functionality was tested.
To mediate cell interactions, EMR2 binds to chondroitin sulfate GAGs on the opposing cell. To block EMR2 signaling and the induction of T regulatory cells, we added soluble chondroitin sulfate to the cell culture. Saturating the culture with soluble chondroitin sulfate competitively binds up available EMR2 molecules and subsequently block signaling from the APC to the lymphocytes.
We treated APC with soluble chondroitin sulfate (1.5 mg/mL) in the same conditions listed above. By using a dose curve, we found 1.5 mg/mL was the ideal concentration for saturating EMR2 receptors. Post co-culture with lymphocytes, we repeated surface and intracellular staining of lymphocytes to check for differences in FoxP3+ cells (FIG. 9).

Another test deals with human APCs. In words: Surface markers on human tolerogenic APC by flow cytometry. Type of test: cell-based. As for the experimental part:
Isolated cells were plated on sterile petri dishes (BD Falcon, Franklin Lakes, N.J.) in serum-free culture medium, RPMI-1640 supplemented with Glutamax (Invitrogen, Carlsbad, Calif.), 1 mM sodium pyruvate, 0.1 mM non-essential amino acids, 100 U/mL Penicillin/Streptomycin, 10 mM HEPES (Invitrogen, Carlsbad, Calif.), Insulin/Transferrin/Selenium (ITS) (Invitrogen, Carlsbad, Calif.), and 0.1% BSA (Sigma-Aldrich, St. Louis, Mo.). Cells were cultured with or without 1 ng/mL porcine TGFβ2 (R&D Systems, Minneapolis, Minn.) for at least six hours. Cells were then pulsed with or without tetanus toxoid (TT) antigen (List Biological Laboratories, Campbell, Calif.) in serum-free media and incubated overnight in 37° C., 5% CO2.
APC were analyzed by flow cytometry to confirm the expression of myeloid and tolerogenic markers. CD14 (constitutive on monocyte-derived cells), Immunoglobulin-like transcript 3 (ILT3, cell surface immunoglobulin that co-ligates to APC stimulatory receptors to downregulate activation signals (Cella et al., 1997)), Programmed cell death 1 ligand 1 (PD-L1, well-known immunosuppressive ligand), and EMR2 were measured. Monoclonal antibodies to ILT3 and PD-L1 were purchased from eBioscience (San Diego, Calif.) and the monoclonal antibody to EMR2 was purchased from R&D Systems (Minneapolis, Minn.).
Background: In flow cytometry, cells or beads pass a laser one at a time.

[1] abbreviates: both TGFβ2 (1 ng/mL) and antigen (TT) compared to antigen or TGFβ2 alone.

Experimental findings from patent publication US20170198026A1, “Compositions And Methods For Treating Tumors And Immune Based Inflammatory Diseases” (The Schepens Eye Research Institute, Inc., priority 2014, published 2017) are described below.

“Also recorded” adds a separate entry of the source.

Consider “chondroitin sulfate [soluble chondroitin sulfate]”, for which the “CD25+ FoxP3+ cell populations (Treg production)” value at EMR2 (1.5 mg/mL soluble chondroitin sulfate, APC treated with antigen and TGFβ, CD4+ gated lymphocytes post co-culture) was “no increase; also recorded: successfully blocks Treg production”. The “ideal concentration for saturating EMR2 receptors” value at EMR2 (dose curve, APC culture) is 1.5 mg/mL.

B1: TGFβ2: porcine TGFβ2 (R&D Systems), aqueous humor immunosuppressive factor used to generate tolerogenic APC (protein, UniProt P09858 303-435, looked up)
Transforming growth factor …: ALDAAYCFRNVQDNCCLRPLYIDFKRDLGWKWIHEPKGYNANFCAGACPYLWSSDTQHSRVLSLYNTINPEASASPCCVSQDLEPLTILYYIGKTPKIEQLSNMIVKSCKCSKTKLAAFARLYHSHSNLGSET
Take B1: in the test with human APCs (TGFβ2 (1 ng/mL) and antigen (TT)), the “EMR2 expression on APC” value was “also upregulated”. Moreover, in the test with human APCs (setting [1]), the “ILT3 expression on APC” value is “significantly (p≦0.05) upregulated” and the “PD-L1 expression on APC” value was “significantly (p≦0.05) upregulated”.
